What was measured:
[1] = biological target: T1, 重组人IL-1β (human, UniProt P01584 117-269); test: solution equilibrium titration (SET), single target binding assay, mean KD
T1 construct: also called huIL-1β; IL-1b

[2] = biological target: T2, 重组人IL-18 (human, UniProt Q14116 37-193); test: SET, single target binding assay
T2 construct: also called huIL-18; BTP 25829

Row | Kd [1] | binding result [2] | Binder
1 | 0.6 pM |  | mAb2 (antibody, human IgG1, kappa, V domains shown, Human anti-IL-1β antibody, bivalent; also called IL-1β抗体; 卡那吉努单抗 (canakinumab)) VH: QVQLVESGGGVVQPGRSLRLSCAASGFTFSVYGMNWVRQAPGKGLEWVAIIWYDGDNQYYADSVKGRFTISRDNSKNTLYLQMNGLRAEDTAVYYCARDLRTGPFDYWGQGTLVTVSS VL: EIVLTQSPDFQSVTPKEKVTITCRASQSIGSSLHWYQQKPDQSPKLLIKYASQSFSGVPSRFSGSGSGTDFTLTINSLEAEDAAAYYCHQSSSLPFTFGPGTKVDIKR
2 |  | binds | mAb1 (antibody, human IgG1, lambda, L234A L235A, V domains shown, Human anti-IL-18 antibody, bivalent; also called IL-18抗体) VH: EVQLVQSGAEVKKPGSSVKVSCKASGGTFKSYAISWVRQAPGQGLEWMGNIIPMTGQTYYAQKFQGRVTITADESTSTAYMELSSLRSEDTAVYYCARAAYHPLVFDNWGQGTLVTVSS VL: DIVLTQPPSVSGAPGQRVTISCSGSSSNIGNHYVNWYQQLPGTAPKLLIYRNNHRPSGVPDRFSGSKSGTSASLAITGLQSEDEADYYCQSWDYSGFSTVFGGGTKLTVLG

Reference: patent CN116723860A (NOVARTIS AG, dated 2023)
